# Literature values as cited in patent US20210196801A1, “Starting Dose of PTH Conjugates” (Ascendis Pharma Bone Diseases A/S, priority 2018, published 2021).
# Like-named read-outs stand apart in the source and are kept apart here.
# Tests used:
# [1] = not given; remark: listed apart in the source
half-life ([1]; after IV administration),"half-life ([1]; after subcutaneous administration, due to prolonged absorption) [h]",Compound,half-life (IV),half-life (after subcutaneous administration)
–,–,"Natpara: PTH(1-84), approved for once-daily subcutaneous injection in patients with hypoparathyroidism",about 5 minutes,about 3 hours
about 5 minutes,~1,CC[C@H](C)[C@H](NC(=O)[C@H](CCC(=O)O)NC(=O)[C@H](CO)NC(=O)[C@@H](NC(=O)[C@@H](N)CO)C(C)C)C(=O)N[C@@H](CCC(N)=O)C(=O)N[C@@H](CC(C)C)C(=O)N[C@@H](CCSC)C(=O)N[C@@H](Cc1cnc[nH]1)C(=O)N[C@@H](CC(N)=O)C(=O)N[C@@H](CC(C)C)C(=O)NCC(=O)N[C@@H](CCCCN)C(=O)N[C@@H](Cc1cnc[nH]1)C(=O)N[C@@H](CC(C)C)C(=O)N[C@@H](CC(N)=O)C(=O)N[C@@H](CO)C(=O)N[C@@H](CCSC)C(=O)N[C@@H](CCC(=O)O)C(=O)N[C@@H](CCCN=C(N)N)C(=O)N[C@H](C(=O)N[C@@H](CCC(=O)O)C(=O)N[C@@H](Cc1c[nH]c2ccccc12)C(=O)N[C@@H](CC(C)C)C(=O)N[C@@H](CCCN=C(N)N)C(=O)N[C@@H](CCCCN)C(=O)N[C@@H](CCCCN)C(=O)N[C@@H](CC(C)C)C(=O)N[C@@H](CCC(N)=O)C(=O)N[C@@H](CC(=O)O)C(=O)N[C@H](C(=O)N[C@@H](Cc1cnc[nH]1)C(=O)N[C@@H](CC(N)=O)C(=O)N[C@@H](Cc1ccccc1)C(=O)O)C(C)C)C(C)C [Teriparatide],–,–
